From publication doi:10.1101/2023.12.15.570541

Each substance was assayed against MFSD1-strep (mouse Major Facilitator Superfamily Domain Containing 1 with N-terminal Twin-Streptavidin-tag) (mouse) (UniProt Q9DC37) (assay: nanoDSF).
UniProt Q9DC37, sequence (Q9DC37 whole entry, the tested form may be a part): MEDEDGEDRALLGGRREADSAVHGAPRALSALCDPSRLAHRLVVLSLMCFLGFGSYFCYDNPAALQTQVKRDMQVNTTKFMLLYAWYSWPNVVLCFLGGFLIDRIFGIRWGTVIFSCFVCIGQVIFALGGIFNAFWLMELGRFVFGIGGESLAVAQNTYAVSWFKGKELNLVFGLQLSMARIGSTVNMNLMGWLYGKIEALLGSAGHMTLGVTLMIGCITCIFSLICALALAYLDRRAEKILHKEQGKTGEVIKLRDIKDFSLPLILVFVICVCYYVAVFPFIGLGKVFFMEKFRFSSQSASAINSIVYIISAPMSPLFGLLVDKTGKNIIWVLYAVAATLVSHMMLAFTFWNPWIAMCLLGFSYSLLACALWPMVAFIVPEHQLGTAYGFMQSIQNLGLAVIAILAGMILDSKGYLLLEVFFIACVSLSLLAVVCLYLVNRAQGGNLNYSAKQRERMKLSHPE

Substance	ΔTm	Kd
Leu-Leu (peptide)	14 °C	
His-Lys (peptide)	12 °C	765 µM
Leu-Ala (peptide)		2200 µM
Pro-Arg (peptide)	12.1 °C	318 µM

Other lines, results leading:

ΔTm	Kd	Substance
	6700 µM	His-Ala (peptide)
	4300 µM	Lys-Val (peptide)
